Source: patent US20240261333A1 (published 2024)

Key:
KTN1 = target: T1, KTN1 (human, UniProt Q86UP2 1-1357); experiment: anti-FLAG co-IP from lysate of N-FLAG B3GNT2 cells, mass spectrometry
T1 construct: also called NP_001072989.1 (+5)
T1 sequence (looked up): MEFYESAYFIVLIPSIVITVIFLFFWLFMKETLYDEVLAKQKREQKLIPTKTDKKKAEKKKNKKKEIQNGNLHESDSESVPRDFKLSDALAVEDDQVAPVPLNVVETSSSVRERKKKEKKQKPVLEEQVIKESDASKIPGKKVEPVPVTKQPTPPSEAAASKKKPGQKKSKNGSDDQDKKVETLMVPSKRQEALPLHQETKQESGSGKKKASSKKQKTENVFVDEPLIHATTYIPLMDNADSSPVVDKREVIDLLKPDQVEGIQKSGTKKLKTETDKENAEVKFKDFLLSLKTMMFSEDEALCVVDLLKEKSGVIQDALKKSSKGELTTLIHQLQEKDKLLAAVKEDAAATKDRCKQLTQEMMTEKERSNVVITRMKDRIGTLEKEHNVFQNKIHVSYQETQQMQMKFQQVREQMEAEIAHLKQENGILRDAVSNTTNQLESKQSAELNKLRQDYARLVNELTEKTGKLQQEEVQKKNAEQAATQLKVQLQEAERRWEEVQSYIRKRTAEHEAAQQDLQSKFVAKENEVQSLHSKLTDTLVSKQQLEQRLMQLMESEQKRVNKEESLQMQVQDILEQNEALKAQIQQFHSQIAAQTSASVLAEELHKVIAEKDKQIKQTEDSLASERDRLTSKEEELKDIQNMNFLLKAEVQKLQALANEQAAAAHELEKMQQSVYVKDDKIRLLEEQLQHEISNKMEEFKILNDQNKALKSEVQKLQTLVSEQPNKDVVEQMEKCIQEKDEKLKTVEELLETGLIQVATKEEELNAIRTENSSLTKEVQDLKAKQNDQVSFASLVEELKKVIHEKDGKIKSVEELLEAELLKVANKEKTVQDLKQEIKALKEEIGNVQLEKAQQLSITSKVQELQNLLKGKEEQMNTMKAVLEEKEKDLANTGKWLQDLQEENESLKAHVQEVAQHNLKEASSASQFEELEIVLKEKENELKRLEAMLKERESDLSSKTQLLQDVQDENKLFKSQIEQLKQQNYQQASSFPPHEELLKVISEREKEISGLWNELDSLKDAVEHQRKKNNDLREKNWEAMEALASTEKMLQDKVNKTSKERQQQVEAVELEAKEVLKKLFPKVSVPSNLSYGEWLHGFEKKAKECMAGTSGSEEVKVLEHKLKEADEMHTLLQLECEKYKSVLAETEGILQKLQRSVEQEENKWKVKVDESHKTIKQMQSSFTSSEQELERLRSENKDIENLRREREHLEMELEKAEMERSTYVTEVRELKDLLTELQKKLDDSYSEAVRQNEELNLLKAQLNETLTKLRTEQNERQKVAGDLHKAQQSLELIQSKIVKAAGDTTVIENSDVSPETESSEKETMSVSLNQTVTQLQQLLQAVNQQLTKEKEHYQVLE

TRAFD1 = target: T2, TRAFD1 (human, UniProt O14545 2-582); experiment: as above
T2 construct: also called NP_006691.1
T2 sequence (looked up): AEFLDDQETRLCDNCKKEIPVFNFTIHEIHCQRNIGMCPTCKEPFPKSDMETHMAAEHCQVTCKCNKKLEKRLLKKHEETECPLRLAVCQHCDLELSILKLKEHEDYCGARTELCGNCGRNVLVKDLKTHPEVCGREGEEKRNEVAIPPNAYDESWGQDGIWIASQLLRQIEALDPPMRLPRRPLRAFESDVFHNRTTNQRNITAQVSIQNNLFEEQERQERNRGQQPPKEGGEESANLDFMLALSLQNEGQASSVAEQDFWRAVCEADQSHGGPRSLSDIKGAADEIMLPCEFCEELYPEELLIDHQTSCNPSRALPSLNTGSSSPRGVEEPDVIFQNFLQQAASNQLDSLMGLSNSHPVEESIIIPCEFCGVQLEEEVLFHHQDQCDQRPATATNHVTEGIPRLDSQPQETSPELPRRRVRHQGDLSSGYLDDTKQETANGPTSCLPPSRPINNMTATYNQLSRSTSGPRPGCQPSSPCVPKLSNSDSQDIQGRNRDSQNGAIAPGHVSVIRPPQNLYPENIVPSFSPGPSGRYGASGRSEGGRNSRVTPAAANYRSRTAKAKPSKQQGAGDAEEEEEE

B1: N-terminal FLAG tagged B3GNT2 (enzyme, human, UniProt Q9NY97 1-397, looked up)
chain: MSVGRRRIKLLGILMMANVFIYFIMEVSKSSSQEKNGKGEVIIPKEKFWKISTPPEAYWNREQEKLNRQYNPILSMLTNQTGEAGRLSNISHLNYCEPDLRVTSVVTGFNNLPDRFKDFLLYLRCRNYSLLIDQPDKCAKKPFLLLAIKSLTPHFARRQAIRESWGQESNAGNQTVVRVFLLGQTPPEDNHPDLSDMLKFESEKHQDILMWNYRDTFFNLSLKEVLFLRWVSTSCPDTEFVFKGDDDVFVNTHHILNYLNSLSKTKAKDLFIGDVIHNAGPHRDKKLKYYIPEVVYSGLYPPYAGGGGFLYSGHLALRLYHITDQVHLYPIDDVYTGMCLQKLGLVPEKHKGFRTFDIEEKNKNNICSYVDLMLVHSRKPQEMIDIWSQLQSAHLKC
notes: Bait of the co-IP; pulled down from cell lysate with mouse anti-FLAG antibody; also called N-FLAG B3GNT2; N-term FLAG; not shown: N-terminal FLAG tag
In the case of B1, the “co-IP mass spectrometry count” value (KTN1) is reported as 0 and the “co-IP mass spectrometry count” value (TRAFD1) is reported as 0.
